Patent US20050175581

T1: substrate B
T1 chain: KKWLGRVPGGPV

T2: substrate A
T2 chain: LLWLGRVVGGPV


Legend:
[1] = target: T1, substrate B
[2] = target: T2, substrate A

Protein	rate constants of the proteolytic digestion (proportional to kcat/KM), relative to human trypsin I [1]	rate constants of the proteolytic digestion (proportional to kcat/KM), relative to human trypsin I [2]
Variant 1 (protein) IVGGYNCEENSVPYQVSLNSGYHFCGGSLINEQWVVSAGHCYDAVGRDKSRIQVRLGEHNIEVLEGNEQFINAAKIIRHPQYDRKTLNNDIMLIKLSSRAVINARVSTISLPTAPPATGTKCLISGWGNTITNSTASSGADYPDELQCLDAPVLSQAKCEASYPGKITSNMFCVGFLEGGKDSCQGDSGGPVVCNGQLQGVVSWGDGCAQKNKPGVYTKVYNYVKWIKNTIAANS	the specific activity of variants 1 and 2 is shifted (SEQ ID NOs: 2 and 3, respectively) towards substrate B	–
Variant 3 (protein) IVGGYNCEENSVPYQVSLNSGYHFCGGSLINEQWVVSAGHCYAATNGDKSRIQVRLGEHNIEVLEGNEQFINAAKIIRHPQYDRKTLNNDIMLIKLSSRAVINARVSTISLPTAPPATGTKCLISGWGNRKDFWTASSGADYPDELQCLDAPVLSQAKCEASYPGKITSNMFCVGFLEGGKDSCQGDSGGPVVCNGQLQGVVSWGDGCAQKNKPGVYTKVYNYVKWIKNTIAANS	serves as a negative control with similar activities as the human trypsin I	serves as a negative control with similar activities as the human trypsin I
Variant 2 (protein) IVGGYNCEENSVPYQVSLNSGYHFCGGSLINEQWVVSAGHCYNGRDLEKSRIQVRLGEHNIEVLEGNEQFINAAKIIRHPQYDRKTLNNDIMLIKLSSRAVINARVSTISLPTAPPATGTKCLISGWGNVRGTWTASSGADYPDELQCLDAPVLSQAKCEASYPGKITSNMFCVGFLEGGKDSCQGDSGGPVVCNGQLQGVVSWGDGCAQKNKPGVYTKVYNYVKWIKNTIAANS	the specific activity of variants 1 and 2 is shifted (SEQ ID NOs: 2 and 3, respectively) towards substrate B	–
